Laboratory results from patent publication US20150152192A1 (SAMSUNG ELECTRONICS, published 2015).

T1: human Ang2 polypeptide (R&D systems; Accession #O15123; SEQ ID NO: 172) (human, UniProt O15123 19-496)
T1 construct: Bought protein; also called hAng2; human Ang2 protein
T1 sequence: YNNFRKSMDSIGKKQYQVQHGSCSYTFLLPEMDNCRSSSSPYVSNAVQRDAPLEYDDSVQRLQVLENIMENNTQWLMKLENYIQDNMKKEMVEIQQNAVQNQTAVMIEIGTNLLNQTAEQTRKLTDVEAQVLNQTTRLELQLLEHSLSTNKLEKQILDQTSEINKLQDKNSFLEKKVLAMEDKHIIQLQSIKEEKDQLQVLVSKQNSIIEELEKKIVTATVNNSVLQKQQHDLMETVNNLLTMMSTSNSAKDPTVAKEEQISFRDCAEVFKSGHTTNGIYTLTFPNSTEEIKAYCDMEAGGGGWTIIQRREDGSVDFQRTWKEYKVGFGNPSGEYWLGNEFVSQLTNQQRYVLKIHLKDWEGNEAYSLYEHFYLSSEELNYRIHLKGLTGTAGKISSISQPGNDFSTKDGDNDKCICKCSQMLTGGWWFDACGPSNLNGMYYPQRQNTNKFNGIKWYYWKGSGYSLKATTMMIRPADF


Columns and labels:
[1] = molecular target: T2, integrin alpha5beta1 (α5β1; R&D systems) (human, UniProt P08648 42-995; P05556 21-728, limits assumed); assay: ELISA: integrin alpha5beta1 coated at 5 ug/ml, FLAG-Ang2 at 10 ug/ml, detection with anti-FLAG-HRP, A450
T2 construct: Bought heterodimer
T2 sequence (P08648 42-995 limits assumed, chain 1 of 2): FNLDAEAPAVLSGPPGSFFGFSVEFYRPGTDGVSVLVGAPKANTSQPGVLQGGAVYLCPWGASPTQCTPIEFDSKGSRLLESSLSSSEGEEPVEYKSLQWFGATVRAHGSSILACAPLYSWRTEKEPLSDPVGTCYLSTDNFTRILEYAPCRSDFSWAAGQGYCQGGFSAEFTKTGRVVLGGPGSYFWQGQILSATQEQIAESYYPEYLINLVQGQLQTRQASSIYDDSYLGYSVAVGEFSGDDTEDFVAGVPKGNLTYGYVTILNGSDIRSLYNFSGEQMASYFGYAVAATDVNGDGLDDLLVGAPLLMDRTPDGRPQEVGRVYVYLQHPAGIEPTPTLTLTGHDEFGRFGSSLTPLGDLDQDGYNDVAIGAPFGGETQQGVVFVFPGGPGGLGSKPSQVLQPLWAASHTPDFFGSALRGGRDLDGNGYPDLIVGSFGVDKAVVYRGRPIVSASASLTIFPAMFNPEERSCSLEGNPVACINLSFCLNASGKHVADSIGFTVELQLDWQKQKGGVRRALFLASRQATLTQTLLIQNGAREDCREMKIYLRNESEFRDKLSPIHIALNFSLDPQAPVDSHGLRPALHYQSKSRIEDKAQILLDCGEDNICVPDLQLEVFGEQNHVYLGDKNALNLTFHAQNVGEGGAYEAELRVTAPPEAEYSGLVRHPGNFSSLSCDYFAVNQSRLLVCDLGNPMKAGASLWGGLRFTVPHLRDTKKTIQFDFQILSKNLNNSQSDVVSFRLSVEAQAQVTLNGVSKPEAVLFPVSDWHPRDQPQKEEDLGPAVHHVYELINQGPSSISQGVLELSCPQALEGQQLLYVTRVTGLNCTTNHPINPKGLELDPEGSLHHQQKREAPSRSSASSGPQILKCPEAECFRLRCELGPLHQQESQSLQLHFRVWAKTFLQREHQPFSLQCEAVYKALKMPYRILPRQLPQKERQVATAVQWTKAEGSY
T2 sequence (P05556 21-728 limits assumed, chain 2 of 2): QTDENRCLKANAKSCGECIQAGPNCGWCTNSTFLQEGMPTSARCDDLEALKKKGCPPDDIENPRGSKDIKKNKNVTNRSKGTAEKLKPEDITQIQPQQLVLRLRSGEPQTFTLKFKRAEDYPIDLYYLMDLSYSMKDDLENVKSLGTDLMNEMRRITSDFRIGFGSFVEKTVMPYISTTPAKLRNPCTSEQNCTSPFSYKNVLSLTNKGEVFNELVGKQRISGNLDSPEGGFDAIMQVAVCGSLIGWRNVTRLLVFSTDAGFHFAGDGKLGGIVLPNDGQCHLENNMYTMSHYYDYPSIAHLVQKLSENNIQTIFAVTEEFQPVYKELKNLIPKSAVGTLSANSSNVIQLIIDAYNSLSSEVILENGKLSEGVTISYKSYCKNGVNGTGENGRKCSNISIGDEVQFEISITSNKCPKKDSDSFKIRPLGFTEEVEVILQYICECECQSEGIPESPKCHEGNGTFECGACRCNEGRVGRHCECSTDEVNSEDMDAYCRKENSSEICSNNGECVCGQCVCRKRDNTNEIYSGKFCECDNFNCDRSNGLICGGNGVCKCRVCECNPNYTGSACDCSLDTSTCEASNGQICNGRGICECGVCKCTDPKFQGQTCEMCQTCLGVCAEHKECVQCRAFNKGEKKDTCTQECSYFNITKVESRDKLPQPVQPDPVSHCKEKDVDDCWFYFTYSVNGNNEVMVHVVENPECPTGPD
Procedure: After that, an anti-FLAG antibody (Sigma) conjugated with horseradish peroxidase (HRP) was added to react, and the plate was washed again five times with PBS-t. Bindings between Ang2 and the above the integrin were identified indirectly by measuring the amounts of the anti-FLAG antibody remaining in the ELISA plate via color development using TMB (3,3,5,5-tetramethylbenzidine) as a substrate of HRP. As positive controls, control antibody 1 (Regeneron Ang2 antibody) and control antibody 2 (Astra Zeneca Ang2 antibody) were used. Also, to show the background, a group coated with BSA instead of integrin was used.

[2] = molecular target: T3, human c-Met/Fc fusion protein (R&D Systems) (human, UniProt P08581 25-932); assay: SPR, Biacore T100, bispecific antibody captured by human Fab binder on CM5 chip, c-Met-Fc flowed
T3 construct: also called c-Met-Fc (#358-MT/CF, R&D Systems); human c-Met/Fc protein; not shown: Fc part
T3 sequence (P08581 25-932 limits assumed): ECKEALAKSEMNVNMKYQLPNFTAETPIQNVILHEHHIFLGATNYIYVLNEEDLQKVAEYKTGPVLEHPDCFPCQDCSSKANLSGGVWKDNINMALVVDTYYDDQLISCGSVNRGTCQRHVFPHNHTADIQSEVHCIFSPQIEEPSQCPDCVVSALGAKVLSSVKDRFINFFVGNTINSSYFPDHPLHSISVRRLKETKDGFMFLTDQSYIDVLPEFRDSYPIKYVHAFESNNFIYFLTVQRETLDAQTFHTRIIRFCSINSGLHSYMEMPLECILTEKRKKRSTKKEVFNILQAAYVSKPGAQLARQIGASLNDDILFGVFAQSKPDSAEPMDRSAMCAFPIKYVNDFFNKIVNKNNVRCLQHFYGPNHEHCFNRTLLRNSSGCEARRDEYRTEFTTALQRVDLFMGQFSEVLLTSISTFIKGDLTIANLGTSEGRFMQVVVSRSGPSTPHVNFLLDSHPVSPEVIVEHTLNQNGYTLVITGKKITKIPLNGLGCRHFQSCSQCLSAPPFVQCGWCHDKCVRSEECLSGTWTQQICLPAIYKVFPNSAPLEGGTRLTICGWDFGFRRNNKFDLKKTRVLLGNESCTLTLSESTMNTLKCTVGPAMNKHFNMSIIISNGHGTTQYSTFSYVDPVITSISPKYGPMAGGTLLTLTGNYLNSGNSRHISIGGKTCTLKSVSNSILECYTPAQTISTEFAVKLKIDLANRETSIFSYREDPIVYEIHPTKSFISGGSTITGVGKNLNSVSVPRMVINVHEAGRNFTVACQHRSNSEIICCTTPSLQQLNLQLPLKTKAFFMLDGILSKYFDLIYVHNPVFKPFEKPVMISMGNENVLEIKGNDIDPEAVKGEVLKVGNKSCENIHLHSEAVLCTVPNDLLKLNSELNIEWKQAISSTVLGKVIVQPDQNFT
Procedure: For this, a human Fab binder (GE Healthcare) was fixed on the surface of CM5 chip (#BR-1005-30, GE) according to manufacturer's manual. […] Hereto, 10 mM Glycine-HCl (pH 1.5) solution was added, to regenerate the surface. To measure the affinity, the above obtained data were fitted using BIAevaluation software (GE Healthcare, Biacore T100 evaluation software).

[3] = molecular target: T1, human Ang2 polypeptide (R&D systems; …); assay: ELISA, human Ang2 coated, anti-human Fc-HRP; 50% binding concentration

binding result [1] | Kd [2] | koff [2] | kon [2] | Kd [3] | Binder
binds | – | – | – | – | FLAG-Tagged hAng2 (ligand, also called FLAG-Ang2; non-mutated Ang2) DYKDDDDKYNNFRKSMDSIGKKQYQVQHGSCSYTFLLPEMDNCRSSSSPYVSNAVQRDAPLEYDDSVQRLQVLENIMENNTQWLMKLENYIQDNMKKEMVEIQQNAVQNQTAVMIEIGTNLLNQTAEQTRKLTDVEAQVLNQTTRLELQLLEHSLSTNKLEKQILDQTSEINKLQDKNSFLEKKVLAMEDKHIIQLQSIKEEKDQLQVLVSKQNSIIEELEKKIVTATVNNSVLQKQQHDLMETVNNLLTMMSTSNSAKDPTVAKEEQISFRDCAEVFKSGHTTNGIYTLTFPNSTEEIKAYCDMEAGGGGWTIIQRREDGSVDFQRTWKEYKVGFGNPSGEYWLGNEFVSQLTNQQRYVLKIHLKDWEGNEAYSLYEHFYLSSEELNYRIHLKGLTGTAGKISSISQPGNDFSTKDGDNDKCICKCSQMLTGGWWFDACGPSNLNGMYYPQRQNTNKFNGIKWYYWKGSGYSLKATTMMIRPADF
– | 0.09 nM | 8.2e-05 s⁻¹ | 850000 M⁻¹ s⁻¹ | 31 nM | anti-c-Met/anti-Ang2 bispecific antibody (anti-Ang2 4-H10 scFv fused to the C-terminus of anti-c-Met antibody L3-1Y-IgG2) (bispecific antibody, also called BS ab; BS Ab) heavy: EVQLVESGGGLVQPGGSLRLSCAASGFTFTDYYMSWVRQAPGKGLEWLGFIRNKANGYTTEYSASVKGRFTISRDNSKNTLYLQMNSLRAEDTAVYYCARDNWFAYWGQGTLVTVSSASTKGPSVFPLAPCSRSTSESTAALGCLVKDYFPEPVTVSWNSGALTSGVHTFPAVLQSSGLYSLSSVVTVPSSNFGTQTYTCNVDHKPSNTKVDKTVERKCCVECPPCPAPPVAGPSVFLFPPKPKDTLMISRTPEVTCVVVDVSHEDPEVQFNWYVDGVEVHNAKTKPREEQFNSTFRVVSVLTVVHQDWLNGKEYKCKVSNKGLPAPIEKTISKTKGQPREPQVYTLPPSREEMTKNQVSLTCLVKGFYPSDIAVEWESNGQPENNYKTTPPMLDSDGSFFLYSKLTVDKSRWQQGNVFSCSVMHEALHNHYTQKSLSLSPGGGGGSGGGGSEVQLLESGGGLVQPGGSLRLSCAASGFTFSSYDMSWVRLAPGKGLEWVSLISPDSSSIYYADSVKGRFTISRDNSKNTLYLQMNSLRAEDTAVYYCAKDLISFWRGGFDYWGQGTLVTVSSGGGGSGGGGSGSGGSQSVLTQPPSASGTPGQRVTISCSGSSSNIGSNYVNWYQQLPGTAPKLLIYSDSHRPSGVPDRFSGSKSGTSASLAISGLRSEDEADYYCGAWDDSLSGYVFGGGTKLTVLGQAGQHHHHHHGAYPYDVPDYAS light: DIQMTQSPSSLSASVGDRVTITCKSSQSLLASGNQNNYLAWYQQKPGKAPKMLIIWASTRVSGVPSRFSGSGSGTDFTLTISSLQPEDFATYYCQQSYSRPYTFGQGTKVEIKRTVAAPSVFIFPPSDEQLKSGTASVVCLLNNFYPREAKVQWKVDNALQSGNSQESVTEQDSKDSTYSLSSTLTLSKADYEKHKVYACEVTHQGLSSPVTKSFNRGEC
